Assay: label from the status in PepcDB records

Row | Sequence | protein production
1 | MQAYVLHFIALVIMSLTGTTSGAFAQNGQSTEVSGPIEDRVPHRHQERPGERMPADYGTPRLLNLGAHTFPVSTSNQLAQQYMNQGLNLSYAFNHAEAGRAFREAARLDPALAMAYWGQALVLGPNINAPMEAKNEVSALELVRKAASLAAGVSDRERALIGALEKRYTGNSEDRKANDKAYANAMREVHRRFSGDQDIAMLFVESVMDTSPWGYWMRDDYPMEGTREIVAVTEGVLQGNPRHPGATHMYIHLMEPTNMPERAAQAADTLLTLMPDAGHLIHMPSHIYLRVGRYEDAIIANQRAIAADVRYLVRQHEHGFYAMAYFPHNIHFLGAAATADGQSELAIDSARKVASTIDDAVLKEMPMTGVFRVVPYWALTRFGKWDEMLQEPEPPSSNAFLKGGWHYARGLAFVAKRQLSEAEQELAALREIMKDDSLDGPLLSVNTARSVLRIGPAVLAGEIAAARGQFNSAIAHLEQAVRLEDSLAYTEPPEWQAPPRLTLGAILLEAGHPAEAETVYWEDLRRNRNNGWALYGLLQALRAQGKNERAALVEERFNKAWARADVKLGASRFGCVFSPMTMAGQSR | failed
2 | HIDLFDLDVEEPNDRIFIKGEAEEWPAYRKVPEVRENCNACGVCKDVCQYSAIYVIDKAYPLPELCHSCGACIYLCPEKAMEEVDYQTGKIVRVKSDITLTYGEMRIGEASAVFLIKQVKELMGKNAIIDSPPGASCPMVESVSDADYVILVAEPTPFGLHDLKIAAEVVSDLGLKFGVVVNKHGLPFDGIERYCKEGGVEILGKIPFSKEIAEKYSRGELLHDMKDFFVQLYEG | failed
3 | VVENYETQFVTFVESEMEQDLAHDLNHVFRVVKTAKLLSKIEGAMLEVVLPAAYLHDCFSFPKNHPNKAESSRIAADKALEFLNEIGYPNEYHDAIKHAIIAHSFSAKVQPDTLEAKVVQDADRLDALGAIGIARCIQVSTNLGVGLYDATDPFCGTREPNDRVNTVDHFYTKLFKLPEIMHTASAKVEAEKRMKFMKAYLIQLGMEIEPYS | failed
4 | MRQATMDFSSSSVFDQHKGDSSEEVDLTMVYQAASNGDVNSLTAVIREDPSILECCDSEGCTPLMHAVSGRQVDTVKLLLKMGANINTQDAYGRTSLCLATYLGWLEGCVSLLRNGAKHNIPDKNGRLPLHAATAEPDVRLLIVLLQQSSLSEINHQDTEGMTPLHWAAFHNRPQHTQMLLKKGADPTLVDKDFKTALHWAVQYGRSRVACQDVLGHAQGPGRASQETTISVSCQHALLGISNIYNKAGRITEASSQQLTSDFRTPLHWAAAAGKAECVQSLLDLGMDSNLRDINESTPLAYALYCGHTACVRLLSREGRAEPARPLPSQNSQPQKKEGRFSVLNQIFCKNKKEEQKAHQKEQSRARPKEEDTSEVNDIIATFDSVVDTNCQDQPGDQVDMVVFKKRTSENSKYLLPEKKSLARKGLPPIRTQSLPPITLGSNFLTASHGATSHAGLNSGLQHTAQRSQKSRSEQDLLNNRTGCQVSLDNPWKGDTRQAFSCKAWTVSSSDKLLDRMFTGQPGHQELSGPPHLPHLPNPSPGQGLQHLSPNRPKVRDFPFTRNSLAPLPDQKFLSGEPLRTNRVLPAIPSQRGHDPPAEESEWSSSPTHDEN | failed
5 | MDKKEYSETFYHPYKPYDIQVQLMETVYRVLSEGKKIAILESPTGTGKTLSLICATMTWLRMNKADIFTRMETNIKTNEDDSENLSDDEPDWVIDTYRKSVLQEKVDLLNDYEKHLNEINTTSCKQLKTMCDLDKEHGRYKSVDPLRKKRKGARHLDVSLEEQDFIPRPYESDSENNDTSKSTRGGRISDKDYKLSELNSQIITLLDKIDGKVSRDPNNGDRFDVTNQNPVKIYYASRTYSQLGQFTSQLRLPSFPSSFRDKVPDEKVKYLPLASKKQLCINPKVMKWKTLEAINDACADLRHSKEGCIFYQNTNEWRHCPDTLALRDMIFSEIQDIEDLVPLGKSLGICPYYASREALPIAEVVTLPYQYLLSESTRSSLQINLENSIVIIDEAHNLIETINSIYSSQISLEDLKNCHKGIVTYFNKFKSRLNPGNRVNLLKLNSLLMTLIQFIVKNFKKIGQEIDPNDMFTGSNIDTLNIHKLLRYIKVSKIAYKIDTYNQALKEEESSKNENPIKETHKKSVSSQPLLFKVSQFLYCLTNLTSEGQFFFEKNYSIKYMLLEPSKPFESILNQAKCVVLAGGTMEPMSEFLSNLLPEVPSEDITTLSCNHVIPKENLQTYITNQPELEFTFEKRMSPSLVNNHLFQFFVDLSKAVPKKGGIVAFFPSYQYLAHVIQCWKQNDRFATLNNVRKIFYEAKDGDDILSGYSDSVAEGRGSLLLAIVGGKLSEGINFQDDLCRAVVMVGLPFPNIFSGELIVKRKHLAAKIMKSGGTEEEASRATKEFMENICMKAVNQSVGRAIRHANDYANIYLLDVRYNRPNFRKKLSRWVQDSINSEHTTHQVISSTRKFFSMRSLNSR | failed
6 | MRAMSKFSRIGLAGVVGAALHAILANHLAPAVQQRLPIGRVSLTFFLALLSALAAGAVLARLAPRARVAALAVAALAFLLLAAATTWLQQCTPAQLAAIDAATPLGCNLGLYNRARAHLPPDGRPAELAPGVWFDRHGLSYACLPPEAQATHLRVALADYALALVGMSLGALLGARQRRRRDQD | failed
7 | MGTIGKKAAKGASVKFSESSTQAVIKATYLQVFGRDVYEGQRLKVQEIKLENGEISVRDFVRALAKSDLFRKLYWTPFYVCKAIEYIHRRLLGRPTYGRQENNKYFDIASKKGLYAVVDAILDSLEYTETFGEDTVPYERYLTPAGLEHHHHHH | not failed
8 | MVDLGKQRDHNYHHMQIITTPTSVDCSREFRHRRTLRSLIECMIPYCCTYQQQPYQNDTLSVSSTSSSSSSSDHSSSSQSSSTVSGTFFGHRRGRVSFCLQDAAVGSSPLLLLELAVPTAALAKEMDEEGVLRIALECDRRRSSNSRSSSIFDVPVWSMFCNGRKMGFAVRRKVTENDAVFLRMMQSVSVGAGVVPSEEEDQMLYLRARFERVTGSSDSESFHMMNPGGSYGQELSIFLLRS | failed
9 | MSQIWFERILRWRKKAQRFLQGRYARFDELNRTLLLTSVVLALINIFTGYLWVRLLILITVAYVYYRFFSKHIHPRLNENQWFILRKQRLMQKVHAFRKRHMTQKEYRYFKCPKCQQSLRAPKGRGTIKVTCSNCQNQFIKKV | failed
10 | MLAGADKVFLYAKPEQIEAFVAAAQSAGVRQVVLLSSVSVVMATSEQNPIARMHRTVELAIERSGLDWTFIRPGMFATNARWWWGESIRGEGVVRLPYPEAQNAPVHEKDMAALAVTALTEPGHSHQAYTVHGSESLTLRRQVEHIGEALGRPIRVETVSVEQAREEFAEKAPSNVAEALLRMWAAADGVPAPVSVIVDRITGRPAHTFAQWAADHADDFR | failed
11 | MSLPTEMHHNLGAEKRSAVATTIDSFKERSQKVRALSDPNVRFVPFFGSSEWLRFDGAHPAVLAEKYNRSYRPYLLGQGGAASLNQYFGMQQMLPQLENKQVVYVISPQWFSKNGYDPAAFQQYFNGDQLTSFLKHQSGDQASQYAATRLLQQFPNVAMKDLVQKLASKEELSTADNEMIELLARFNERQASFFGQFSVRGYVNYDKHVAKYLKILPDQFSYQAIEDVVKADAEKNTSNNEMGMENYFYNEQIKKDLKKLKDSQKSFTYLKSPEYNDLQLVLTQFSKSKVNPIFIIPPVNKKWMDYAGLREDMYQQTVQKIRYQLESQGFTNIADFSKDGGEPFFMKDTIHLGWLGWLAFDKAVDPFLSNPTPAPTYHLNERFFSKDWATYDGDVKEFQEGHHHHHH | not failed
12 | MTDFPTSLTAPKKGCEGCTGSPELGFSFDYAYQPIVNLHDQSIFAHEALVRGPNGEGAMSVLNQVTDQNRYRFDQKCRTTAIAGAAKLGMTERLSINFLPNAVYRPELCIRSTLEAAKQHDFPIERLIFETIESEHVDNNNHLSNILREYREFGFMTAIDDFGAGYSGLTLLADFQPDLIKLDMNLVRDIHRDRARQAIVRGVVTMCKDLGIKLIAEGIEHIEERDFLADCGISLMQGYLFAKPAFKALAQIAPEAWQKP | not failed
13 | MVTVVVPAHNEDVVIAQTAKAILDMKYPRDKLEIILFADNCEDNTYQEMQSIKALPQYADRDLTLINRSGTGGKAGVLNDALKIAKGDYICVYDADAMPEKNALYFLVQKVMEDPERHVAAFGRNKTRNANQNFLTRCINQEIVVTQRIQHVGMWHLGKIGRIPGTNFIINTEFVKSIGGWRNGALTEDTDISFKIMQSGKLIALAYNSEAFQQEPETLKSYYLQRKRWAKGNYEVVIANFKHLFGRGNWRVKWEVFYYTCTFFWFNAAIVLSDILFFSNLIALIIGLFKPGVQVPFAFDANNIYMAQLLLFNWFLMILLYLLQISISQATQYGQATVKQIWIALLAYFTYTQLFIIVSISSVASVMMDKILHREGTKWVKTKRFAG | failed
14 | MEHDERTHVPVELRAAGVVLLNERGDILLVQEKGIPGHPEKAGLWHIPSGAVEDGENPQDAAVREACEETGLRVRPVKFLGAYLGRFPDGVLILRHVWLAEPEPGQTLAPAFTDEIAEASFVSREDFAQLYAAGQIRMYQTKLFYADALREKGFPALPV | not failed
15 | MIIKPAGDSAFLISFGDEISEEINDRVHSLAKAIEKESPEWLVELVPAYSSLLVIYDPLKASYEEVESYLKRISAREVERIKGKTIEIPVAYGGEFGPDIEFVAQYNGLSVDDVIEIHSKPLYRVYFLGFLPGFAYLGGMDERIATPRLEKPRLKVPAGSVGIAGKQTGWYAIESPGGWRIIGRIPLRTFNPGKVPPSIVLPGDYVKFVPIDEKEFWEIYGREWE | not failed
16 | MSDPYERVNGGRLAFKGGDLATRKSIEKKKKKKQKKNKEKLDGVEDGAKTAPDGSPPPAAAAGDEDIYSIDAAKKKKYDDLFPVEAKKFGYIPKANFESREDALDDRVKKKADRYCK | failed
17 | GSSGSSGMSNTTWGLQRDITPRLGARLVQEGNQLHYLADRASITGKFSDAECPKLDVVFPHFISQIESMLTTGELNPRHAQCVTLYHNGFTCEADTLGSCGYVYIAVYPTQR | not failed
18 | MGILDEIMNQEHFDIKTSLDYINEYEKLLPFDSEIHTARAVTYFFGEEYKLAEEHIRKALKFRPNNYDNNFYLANILIAMGEYPDAIKSAVLSVTFLKHFAKIQGYDYINDKLFYYNEQVKTLIEYCIENIKDTNVLEDLKRFFGFIELSIAKFPVCFYGDKWNILVGEYLNKDLNSEYNDYICFYSDTYNNMLSDFQKKLYTVINNSEISSICPIESFKSMTAKEFSLDNGKYIIPIATTEYNQVIDFKIKNTNFKSQQVDPPGFFKYYRVNNGISLNSDKDVIIGKPIKLGFKEKNKKLVFTIFIDALSQKYLLETKYKSMPYTKAFFDKGIIFENCYSAGEWTYPSLTSVVTGLYTTNHHFLHSSAGYKYPDDIDLFSEIMKKNEYFTANISGTYALAPYSSGFRGFDRTVFKNSLGFSDSVIINDAIKHIESFKETNQFVFMSLSDVHKILDDIENYSVNYDIVNQTSLDIETSLSKRSSFVSAWQKYDEEAIKKYDVALRELDRQLKGIYDYILQNYSEEEYLISIFSDHGASFLGKDDFLLKSNITNSVLMVRGSGSASNGNTEYISNMDLIPIILKLANIEHDLSKYDCVLPKTLGGKGREFTYSESIYPGQTYKAMVNNDKYCYILETKGITDIDGTINFDEYSDSVFDKKEDKEVKDNDILEYYREIVYNHIKRNIKY | failed
19 | MTYGEAYLEGWKNIFNYEGVSNRFEFWSFMIGSGVICLLPLLCWWLAVTINNDYGVFIFFALPVSFILTLIFAVPAIALAVRRMHDIGYSGWWVTIAVLIPVTGVILLILCCLPSKSQDQA | failed
20 | MCSNNNTSSGSYGELQLHDESSGSCRKKQKKDKVRRRGPGVAELEKIRLQEEYKPPLSSSPSLPNIDHHHHTLFAPASSVYDLVMTSPNFSFPEKLASTLPVFPISPDATQNRSMGITPVQETGTTTSNPIAIDSPTSIPRHYPRFIPLGLQYEQQQQKLKDLDETMQWRSKKPFYSFIPSGDPSNDDQEQRPCDLFGSAADHGIDLNLKL | failed
